Substrate: O=[N+]([O-])c1ccc(OP(=O)(O)O)cc1
Assay: purified protein
Conditions: pH 8.0; 37.0 °C

| Protein | Km | Vmax |
| --- | --- | --- |
| PAS+phosphatase fusion protein (Mycobacterium tuberculosis H37Rv) (protein) MAAEMDWDKTVGAAEDVRRIFEHIPAILVGLEGPDHRFVAVNAAYRGFSPLLDTVGQPAREVYPELEGQQIYEMLDRVYQTGEPQSGSEWRLQTDYDGSGVEERYFDFVVTPRRRADGSIEGVQLIVDDVTSRVRARQAAEARVEELSERYRNVRDSATVMQQALLAASVPVVPGADIAAEYLVAAEDTAAGGDWFDALALGDRLVLVVGDVVGHGVEAAAVMSQLRTALRMQISAGYTVVEALEAVDRFHKQVPGSKSATMCVGSLDFTSGEFQYCTAGHPPPLLVTADASARYVEPTGAGPLGSGTGFPVRSEVLNIGDAILFYTDGLIERPGRPLEASTAEFADLAASIASGSGGFVLDAPARPIDRLCSDTLELLLRSTGYNDDVTLLAMQRR | 2.54 ± 0.35 mM | 0.07 µmol/min/mg |
| RsbU phosphatase domain (Mycobacterium tuberculosis H37Rv) (protein) AAGGDWFDALALGDRLVLVVGDVVGHGVEAAAVMSQLRTALRMQISAGYTVVEALEAVDRFHKQVPGSKSATMCVGSLDFTSGEFQYCTAGHPPPLLVTADASARYVEPTGAGPLGSGTGFPVRSEVLNIGDAILFYTDGLIERPGRPLEASTAEFADLAASIASGSGGFVLDAPARPIDRLCSDTLELLLRSTGYNDDVTLLAMQRR | 7.47 ± 1.22 mM | 0.07 µmol/min/mg |

Reference: publication PMC3662962
